Changes are numbered by the printed parent chain.
B1: Mu12D10 (conjugate)
VH: EVKLVESEGGLVQPGSSMKLSCTASGFTFSDYFMAWVRQVPEKGLEWVASINYDGNSTYFLDSLKSRFIISRDNAKNILYLQMSSLKSEDTATYYCARDRGFYFDYWGQGTTLTVSS
VL: DVVMTQTPLSLPVSLGDQASISCRFSQSLVHRNGNTYLHWYLQKPGQSPKLLIYKVSNRFSGVPDRFSGSGSGTDFTLKISRVEAEDLGVYFCSQSTHVRPYTFGGGTKLEIR
modifications: conjugate
B2: Mu31D2 (conjugate)
VH: B1 VH with F33Y, S50D, N56G, F60Y, Y80C, F102Y
VL: B1 VL with F25S, R32S, R100P, Y102F, R113K
modifications: conjugate
B3: Mu34C3: murine anti-CS1 antibody, VH SEQ ID NO: 5, VL SEQ ID NO: 6; in Table 5 tested as MMAE, MMAF, duocarmycin ADCs (antibody, V domains shown)
VH: B1 VH with F33Y, N56S, F60Y, Y80F, S84N, F102Y
VL: B1 VL with F25S, R32S, R100P, Y102F, R113K
B4: Mu14C11 (conjugate)
VH: B1 VH with F33Y, N56S, F60Y, S85G, Y95S
VL: B1 VL with F25S, R100P, R113K
modifications: conjugate
B5: Mu27A12 (conjugate)
VH: B1 VH with F33Y, S50E, N56S, F60Y, S85N
VL: B1 VL with F25S, R32N, R100P, R113K
modifications: conjugate

molecular target: T1, human CS1 (Homo sapiens, UniProt Q9NQ25); assay: Flow-cytometry competition assay with AF488-labeled PDL241 (murine antibodies, Example 2); type: binding; settings: 293s cells transfected with human CS1; 60 μg/mL unlabeled test antibody, 6 μg/mL labeled PDL241; less than 20% inhibition = does not compete
T1 construct: expressed in transfected cells; host or cells: 293s cells
T1 sequence (Q9NQ25 23-335): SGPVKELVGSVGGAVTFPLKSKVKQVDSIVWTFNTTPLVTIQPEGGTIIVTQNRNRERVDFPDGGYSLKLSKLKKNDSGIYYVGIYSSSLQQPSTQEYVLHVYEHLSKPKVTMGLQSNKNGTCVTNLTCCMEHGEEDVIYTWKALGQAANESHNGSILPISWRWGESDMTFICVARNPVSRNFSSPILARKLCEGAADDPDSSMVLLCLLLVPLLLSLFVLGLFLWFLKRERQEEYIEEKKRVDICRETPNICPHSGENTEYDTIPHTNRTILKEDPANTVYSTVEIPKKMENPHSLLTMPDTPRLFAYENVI
Experimental: 293s cells transfected with human CS1 (300,000 cells per data point) were incubated at various concentrations with an AF488-labeled PDL241 antibody. The concentration at which 80% of maximal binding occurred was identified (6 μg/mL) and used for the subsequent competition assays.
For the competition assays, transfected 293s cells (300,000 cells per data point) were incubated for 30 min (on ice) with a tenfold excess of unlabeled test antibody (60 μg/mL). After the incubation, 6 μg/mL of AF488-labeled PDL241 was added to the cells and incubated on ice for 30 minutes. After this incubation, the cells were washed with PBS+1% FBS, and binding of AF488-labeled PDL241 was determine by flow cytometry.

Molecule | Competition with AF488-labeled PDL241 for binding
B1 | do not compete with PDL241
B2 | do not compete with PDL241
B3 | do not compete with PDL241
B4 | do not compete with PDL241
B5 | do not compete with PDL241

system: L-363 human multiple myeloma cells; assay: In vitro proliferation assay (CellTiter-Blue), L-363 cells; type: cell-based; settings: antibody conjugated to MMAE, four days, read-out: IC50, MMAE ADC
Experimental: All antibodies were conjugated to each of monomethyl auristatin E (“MMAE”; auristatin microtubule inhibitor), monomethyl auristatin F (“MMAF”; auristatin microtubule inhibitor) and duocarmycin (DNA damaging drug) using previously described methods (Doronina et al., 2003, Nat Biotechnology 21(7):778-784; Polson et al., 2007, Blood 1102:616-623). Drug loading for each ADC was similar. 10,000-20,000 cells (L-363 human multiple myeloma cells) expressing HuCS1 were plated into 96-well plates, and different amounts of ADCs added to the cells. Four days post addition of ADC, cell viability was measured using the CellTiter-Blue® Cell Viability Assay (Promega), and IC50 values were calculated.

Molecule | IC50 [nM]
B2 | 3.5
B3 | 1.3
B5 | 3.5

same assay, conditions: antibody conjugated to MMAF, four days, read-out: IC50, MMAF ADC

Molecule | IC50 [nM]
B1 | 0.15
B2 | 0.12
B3 | 0.08
B4 | 0.25
B5 | 0.11

same assay, conditions: antibody conjugated to duocarmycin, four days, read-out: IC50, Duo ADC

Molecule | IC50 [nM]
B1 | 0.2
B2 | 0.2
B3 | 0.25
B4 | 0.31
B5 | 0.19
